From patent publication US20050182242A1, “Global analysis of protein activities using proteome chips” (priority 2001, published 2005)

B1: Eno2p: yeast enolase, GST fusion (protein, UniProt P00925 2-437, looked up)
Enolase 2: AVSKVYARSVYDSRGNPTVEVELTTEKGVFRSIVPSGASTGVHEALEMRDEDKSKWMGKGVMNAVNNVNNVIAAAFVKANLDVKDQKAVDDFLLSLDGTANKSKLGANAILGVSMAAARAAAAEKNVPLYQHLADLSKSKTSPYVLPVPFLNVLNGGSHAGGALALQEFMIAPTGAKTFAEAMRIGSEVYHNLKSLTKKRYGASAGNVGDEGGVAPNIQTAEEALDLIVDAIKAAGHDGKVKIGLDCASSEFFKDGKYDLDFKNPESDKSKWLTGVELADMYHSLMKRYPIVSIEDPFAEDDWEAWSHFFKTAGIQIVADDLTVTNPARIATAIEKKAADALLLKVNQIGTLSESIKAAQDSFAANWGVMVSHRSGETEDTFIADLVVGLRTGQIKTGAPARSERLAKLNQLLRIEEELGDKAVYAGENFHHGDKL
modifications: GST tag
notes: yeast enolase, GST fusion
B2: Pyc1p: pyruvate carboxylase 1 homolog with conserved biotin-attachment region (protein, UniProt P11154 1-1178, looked up)
Pyruvate carboxylase 1: MSQRKFAGLRDNFNLLGEKNKILVANRGEIPIRIFRTAHELSMQTVAIYSHEDRLSTHKQKADEAYVIGEVGQYTPVGAYLAIDEIISIAQKHQVDFIHPGYGFLSENSEFADKVVKAGITWIGPPAEVIDSVGDKVSARNLAAKANVPTVPGTPGPIETVEEALDFVNEYGYPVIIKAAFGGGGRGMRVVREGDDVADAFQRATSEARTAFGNGTCFVERFLDKPKHIEVQLLADNHGNVVHLFERDCSVQRRHQKVVEVAPAKTLPREVRDAILTDAVKLAKECGYRNAGTAEFLVDNQNRHYFIEINPRIQVEHTITEEITGIDIVAAQIQIAAGASLPQLGLFQDKITTRGFAIQCRITTEDPAKNFQPDTGRIEVYRSAGGNGVRLDGGNAYAGTIISPHYDSMLVKCSCSGSTYEIVRRKMIRALIEFRIRGVKTNIPFLLTLLTNPVFIEGTYWTTFIDDTPQLFQMVSSQNRAQKLLHYLADVAVNGSSIKGQIGLPKLKSNPSVPHLHDAQGNVINVTKSAPPSGWRQVLLEKGPAEFARQVRQFNGTLLMDTTWRDAHQSLLATRVRTHDLATIAPTTAHALAGRFALECWGGATFDVAMRFLHEDPWERLRKLRSLVPNIPFQMLLRGANGVAYSSLPDNAIDHFVKQAKDNGVDIFRVFDALNDLEQLKVGVDAVKKAGGVVEATVCFSGDMLQPGKKYNLDYYLEIAEKIVQMGTHILGIKDMAGTMKPAAAKLLIGSLRAKYPDLPIHVHTHDSAGTAVASMTACALAGADVVDVAINSMSGLTSQPSINALLASLEGNIDTGINVEHVRELDAYWAEMRLLYSCFEADLKGPDPEVYQHEIPGGQLTNLLFQAQQLGLGEQWAETKRAYREANYLLGDIVKVTPTSKVVGDLAQFMVSNKLTSDDVRRLANSLDFPDSVMDFFEGLIGQPYGGFPEPFRSDVLRNKRRKLTCRPGLELEPFDLEKIREDLQNRFGDVDECDVASYNMYPRVYEDFQKMRETYGDLSVLPTRSFLSPLETDEEIEVVIEQGKTLIIKLQAVGDLNKKTGEREVYFDLNGEMRKIRVADRSQKVETVTKSKADMHDPLHIGAPMAGVIVEVKVHKGSLIKKGQPVAVLSAMKMEMIISSPSDGQVKEVFVSDGENVDSSDLLVLLEDQVPVETKA
B3: Hxk1p: yeast hexokinase, GST fusion (protein, UniProt P04806 1-485, looked up)
Hexokinase-1: MVHLGPKKPQARKGSMADVPKELMDEIHQLEDMFTVDSETLRKVVKHFIDELNKGLTKKGGNIPMIPGWVMEFPTGKESGNYLAIDLGGTNLRVVLVKLSGNHTFDTTQSKYKLPHDMRTTKHQEELWSFIADSLKDFMVEQELLNTKDTLPLGFTFSYPASQNKINEGILQRWTKGFDIPNVEGHDVVPLLQNEISKRELPIEIVALINDTVGTLIASYYTDPETKMGVIFGTGVNGAFYDVVSDIEKLEGKLADDIPSNSPMAINCEYGSFDNEHLVLPRTKYDVAVDEQSPRPGQQAFEKMTSGYYLGELLRLVLLELNEKGLMLKDQDLSKLKQPYIMDTSYPARIEDDPFENLEDTDDIFQKDFGVKTTLPERKLIRRLCELIGTRAARLAVCGIAAICQKRGYKTGHIAADGSVYNKYPGFKEAAAKGLRDIYGWTGDASKDPITIVPAEDGSGAGAAVIAALSEKRIAEGKSLGIIGA
modifications: GST tag
notes: yeast hexokinase, GST fusion

Legend:
[1] = test system: phospholipids (phosphatidylinositols vs phosphatidylcholine); assay: Proteome chip lipid-binding screen, overall analysis of six liposomes (PI/PC specificity); conditions: phospholipid liposome probes
Description: FIGS. 4A-4D. Analysis of the phosphatidylinositol-binding proteins. To determine the phosphatidylinositol (“PI”)-binding specificity of 150 positive proteins, their binding signals were normalized against the corresponding binding signals of phosphatidylcholine (“PC”). Based on the ratios (“PI/PC”), the proteins were grouped into four categories: (A) 30 strong and specific, (B) 43 strong and nonspecific, (C) 19 weak and specific, and (D) 58 weak and nonspecific phosphatidylinositol-binding proteins. The intensity represents the PI/PC signal ratio as shown by the scale in the figure. The column, labeled “10^n” to the right of the PI/PC binding ratios indicates the maximum binding signal intensity (open boxes) and its confidence interval (solid horizontal lines); the numbers indicate the log of the values. Boxes in the three columns to the right of the confidence interval column indicate membrane-associated proteins (“Membrane”), kinases (“Kinase”), and uncharacterized ORFs (“Unknown”), respectively.
To identify PI-binding proteins in yeast, liposomes were used as probes because the liposome provides the most relevant physiological condition to assay the interactors. Six types of liposomes were used. Each contains phosphatidylcholine (“PC”) with 1% (w/w) N-(biotinoyl)-1,2-dihexadecanoyl-sn-glycero-3-phosphoethanolamine, triethylammonium salt (biotin DHPE). The biotinylated lipid serves as a label that can be detected by Cy3-streptavidin (21). In addition to PC, the five other liposomes contain either 5% (w/w) PI(3)P, PI(4)P, PI(3,4)P2, PI(4,5)P2, or PI(3,4,5)P3 (FIG. 3A).
The protein-liposome interaction was assayed as follows. Appropriate amounts of each lipid in chloroform were mixed and dried under nitrogen. The lipid mixture was resuspended in TBS buffer by vortexing. The liposomes were created by sonication. Blocked proteome chips were washed three to five times in PBS buffer, and the extra liquid on the glass surface was removed by tapping the slides vertically on a KIMWIPE™. 200 μl of liposome solution was added to the proteome chip and immediately covered by a hydrophobic plastic cover slip (GRACE BIO-LAB™, USA). After trapped air bubbles were removed, the chip was incubated in a humidity chamber at RT for one hour. To remove the cover slip, the chip was immersed into large volume of PBS buffer (50 ml), so that the slip would float away. The chip was then moved to a second PBS bath (>50 ml) and washed 3×5 min with shaking at RT. After removing extra liquid on the surface of the chip, about 100 μl of Cy3 or Cy5 conjugated streptavidin (PIERCE™, USA; 1:2000 to 1:4000 dilution) was added to the surface and covered by a hydrophobic plastic cover slip (GRACE BIO-LABS™, USA). The chip was incubated for greater than 30 min in the dark at RT. The chip was then washed as described above. To completely remove the liquid on the chip, the chip was spun to dryness at 1500-2000 rpm for 5-10 min at RT.
An algorithm was devised to assist in the identification of positive signals (42). Fifty-two (35%) of the interactors (i.e., lipid-binding proteins) correspond to uncharacterized proteins thus ascribing the first biochemical activities to those proteins.
The interactors (i.e., phospholipid-binding proteins) were grouped in several ways (42). First, the interactors were sorted according to whether they bound lipids strongly or weakly, based on the phospholipid-binding signal relative to the amount of GST (FIG. 4). Slightly more (72%) of the strong lipid binding proteins (FIGS. 4A and 4B) were characterized relative to the weakly binding proteins (54%) (FIGS. 4C and 4D). Many of the strong lipid-binding proteins are membrane-associated, or are predicted to be associated with membranes, whereas fewer of the weaker binding proteins appear to be associated with membranes (FIG. 4, “Membrane” column). […] Moreover, thirteen of the seventeen protein kinases bind very strongly to the phospholipids. […]

PI(4,5)P2 liposomes = assay: Nitrocellulose membrane assay: adhered PI(4,5)P2 liposomes probed with GST fusion proteins; assay type: binding; conditions: dilution series, anti-GST antibodies, ECL
Description: A. PI(4,5)P2 liposomes were first adhered to a nitrocellulose membrane, which was blocked by BSA; a dilution series of Rim15p, Eno2p, and Hxk1p, and a GST control were used to probe the membrane. The bound proteins were detected using the anti-GST antibodies and an enhanced chemiluminescence (“ECL”) kit.
Therefore, six proteins, i.e., Rim15p, Eno2p, Hxk1p, Sps1p, Yg1059wp, and Gcn2p, were further tested for phosphoinositol binding using two types of standard assays (Williamson, 2000, Nat. Struct Biol. 7(10):834-7). For Rim15p, Eno2p, and Hxk1p, PI(4,5)P2 liposomes were first adhered to a nitrocellulose membrane, which was then blocked by BSA; different amounts of the GST fusion proteins and a GST control were used to probe the membrane, and bound proteins were detected using anti-GST antibodies. […] We also carried out the reverse assay for four GST fusion proteins, Rim15p, Sps1p, Yg1059wp, and Gcn2p (Guerra et al., 2000, Biosci. Rep. 20: 41). Different amounts of these purified proteins were spotted onto nitrocellulose filters and probed with the six different liposomes (FIG. 5B). The bound liposomes were detected using a horseradish peroxidase (“HRP”)-conjugated streptavidin.

Cy3-labeled streptavidin = molecular target: T1, Cy3-labeled streptavidin (Streptomyces avidinii, UniProt P22629); assay: Yeast proteome chip probed with Cy3-labeled streptavidin alone; assay type: binding
T1 construct: purchased Jackson IR, USA
Description: To test for protein-protein interactions, the yeast proteome was probed with calmodulin (11). Calmodulin is a highly conserved calcium-binding protein involved in many calcium-regulated cellular processes and has many known physical partners (Hook et al., 2001, Annu. Rev. Pharmacol. Toxicol. 41:471). The calmodulin probe was biotinylated, and bound probe was detected using Cy3-labeled streptavidin. As a control, the yeast proteome was probed with Cy3-labeled streptavidin alone.
In addition to the calmodulin-binding targets, one protein, Pyc1p, which bound Cy3 -labeled streptavidin, was also identified. Pyc1p encodes a pyruvate carboxylase 1 homolog that contains a highly conserved biotin-attachment region (Menendez et al., 1998, Yeast 14:647). Thus, as predicted by its sequence, Pyc1p is biotinylated in vivo; and was identified in all experiments using streptavidin detection methods. Thus, proteome microarrays can be used to identify posttranslational modifications of proteins.

T1 sequence (P22629 25-183): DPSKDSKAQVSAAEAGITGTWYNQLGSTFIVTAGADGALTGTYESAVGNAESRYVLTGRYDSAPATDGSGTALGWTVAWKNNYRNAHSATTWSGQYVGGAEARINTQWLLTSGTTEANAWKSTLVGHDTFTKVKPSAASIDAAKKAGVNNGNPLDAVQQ

Molecule	identified as lipid-binding interactor [1]	binding to PI(4,5)P2 liposomes on membrane (PI(4,5)P2 liposomes)	binding of Cy3-labeled streptavidin (Cy3-labeled streptavidin)
B1	identified	tightly bound PI(4,5)P2	
B2			bound
B3	identified	tightly bound PI(4,5)P2	
